Consider 1 molecule from patent US9725517B2, “Humanized monoclonal antibodies against the extracellular domain of human death receptor 5” (Institute of Basic Medical Sciences, Chinese Academy of …, priority 2012, dated 2017).

The subject of this test is Jurkat, HCT116, BEL-7402 and H460 cancer cells. Briefly: CCK-8 cytotoxicity assay of killing cancer cells. The class given is cell-based, human. As to conditions: summary statement; leukemia, liver cancer, colon cancer, lung cancer cells. How it is done:
The assay was carried out in 96-well cell culture plates. Various concentrations (0, 0.5, 1, 2, 4, 8 μg/ml) of humanized anti-human DR5 monoclonal antibodies AD10, AD14 and AD15 were separately added into to human T-cell lymphocytic leukemia cells Jurkat (ATCC, TIB-152), colon cancer cells HCT116 (ATCC, CCL-247), liver cancer cells BEL-7402 (cell bank, Shanghai Institutes for Biological Sciences of Chinese Academy of Sciences, TCHu 10) and non-small cell lung cancer cells H460 (ATCC, HTB-177) in logarithmic growth phase, for 24 hours; parental murine anti-human DR5 monoclonal antibody (AD5-10) and human-mouse chimeric antibody zaptuximab were used as controls. According to the protocol of CCK-8 cytotoxicity detection kit (Dojindo, Gaithersburg, Md.), CCK-8 agents were added and incubated for 2 to 4 hours, the OD value was measured at 450 nm wavelength in micro-ELISA plate detector. The OD value in cell-free well was set as blank control “0”. Cell survival rate=OD value in treated well/OD value in untreated well.
For orientation: Tetrazolium assays rely on reduction of a dye to a coloured formazan, in cell work by metabolically active cells.

B1: zaptuzumab: intact humanized monoclonal antibody against DR5 expressed in HEK293 cells and purified by affinity chromatography (antibody, chains of the INN, looked up, V domains shown)
VH: QVQLVQSGSELKKPGASVKVSCKASGYTFTDFSMNWVRQAPGQGLEWMGWINTETGEPTYADDFKGRFVFSLDTSVSTAYLQISSLKAEDTAVYYCARIDYWGQGTTVTVSS
VL: DIVMTQSPLSLPVTPGEPASISCRSSQSLVHSNGNTYLHWYLQKPGQSPQLLIYKVSNRFSGVPDRFSGSGSGTDFTLKISRVEAEDVGVYYCFQSTHVPHTFGQGTKLEIK
Regarding B1, the “killing activity to cancer cells in vitro” value is reported as “strong killing activity to various cancer cells”.
